Data from patent publication US20060199247A1.

Target: beef heart phosphodiesterase (Boeringer Mannheim) (beef)

phosphodiesterase activity: 6.5 fold
Substance: calmodulin
